Results as given in PMC2671838.

Biological target: Porphyromonas gingivalis heme-binding protein HmuY, heme-bound form (holo-HmuY) (Porphyromonas gingivalis)
Assay: crystal structure; holo-HmuY (heme-bound), sitting-drop vapor diffusion at 20°C, 26 mg/mL protein in 5 mM Tris/HCl pH 8.0, reservoir 2.4 M (NH4)2SO4, 0.1 M MES pH 6.0; tetragonal crystals, one dimer per asymmetric unit; tetramer created by a local and a crystallographic two-fold axis

Porphyromonas gingivalis heme-binding protein HmuY, heme-bound form (holo-HmuY) (natural protein)
stoichiometry N: 4
